Source: patent US12709641B2, “Tau binding compounds” (VOYAGER THERAPEUTICS, INC., dated 2026)
No end group written: not given here.

What was measured:
[1] = biological target: T1, enriched paired helical filament tau protein (ePHF) (human, phosphorylated residues of pathological tau, sites not stated); test: direct ELISA
Protocol: (§1) Variable domain nucleic acid sequences from antibodies obtained from immunizations described above were used to prepare recombinant mouse IgG antibodies. These candidate antibodies were analyzed for binding to ePHF and specificity for ePHF over wild type tau by direct ELISA.
(§2) For direct ePHF and wildtype tau ELISA, plates were first coated with ePHF or wild type tau. Antigen solutions were prepared in PBS and 50 μL were pipetted into each well. Plates were covered and incubated for one hour at 37° C. or overnight at 4° C. Plates were then washed and blocked by addition of 150 μl of blocking buffer to each well and incubated one hour at room temperature. Plates were then washed before addition of serially diluted candidate antibody samples prepared in blocking buffer. Detection of candidate antibody binding was carried out by washing plates and adding a solution of enzyme-labeled secondary antibody in blocking buffer to each well. Secondary antibody binding was detected by addition of substrate and spectrophotometric analysis of resulting reaction product.

[2] = biological target: T1, enriched paired helical filament tau …; test: follow up analysis, method not stated
iPHF = iPHF (Homo sapiens (Human), UniProt P10636-8); test: Octet, antibody on biosensor tips
Protocol: Anti-human tau antibodies were assessed for affinity for iPHF by Octet (ForteBio, Menlo Park, CA) analysis. Recombinant mouse IgG antibodies were prepared with clone-specific variable domain pairs selected from those presented in Table 3 and mouse IgG1 constant domains. Candidate antibodies were immobilized on biosensor tips (ForteBio) in kinetic buffer (ForteBio). Biosensor tips were then washed before introduction of a solution of iPHF in kinetic buffer for analysis of association and dissociation with candidate antibodies. Affinity measurements (K_D) were obtained using Data Analysis HT version 11.1 and corrected for background and high-frequency noise.

wild type tau = wild type tau (Homo sapiens (Human), UniProt P10636-8); test: direct ELISA
Protocol: as §1, §2

[3] = biological target: T2, peptides corresponding with residues 413-430 of human tau (human, also: biotin, position not given here, phosphorylated residues, sites not given here); test: Pepscan biotinylated peptides, BLI or colorimetric detection
T2 peptide: STGSIDMVDSPQLATLAD
Protocol: Recombinant mouse IgG antibodies were prepared with clone-specific variable domain pairs selected from those presented in Table 3 and mouse IgG1 constant domains. Epitope analysis was carried out with different anti-tau antibodies using a peptide scanning approach (e.g., see Verelst, J. et al. Front Mol Biosci. 2020 Mar. 31; 7:48). Libraries of overlapping synthetic biotinylated peptides corresponding to phosphorylated human tau (Pepscan, Lelystad, NL) were obtained and used to coat assay plate wells, each with individual library members. Recombinant mouse IgG antibodies were prepared with clone-specific variable domain pairs selected from those presented in Table 3 and mouse IgG1 constant domains. Antibody binding to peptides in each well was analyzed using colorimetric detection of peptide-antibody complexes with labeled secondary antibody or by associating biotinylated peptides with streptavidin coated biosensors in assay wells and assessing antibody binding by bio-layer interferometry (BLI)-based detection.

B1: V0004 (antibody, V domains shown)
VH: QVQLQQPGAELVKPGASVKLSCKASDYTFTNYWMHWVKQRPGRGLEWIGRIDPNSGGTRYNEKFKNKATLTVDKPSSTAYMHLSSLTSEDSAVYYCAGDFDVWGTGTTVTVSS
VL: DIQMTQSPASLSASVGETVTITCRASGNIHNYLAWYQQRQGKSPQLLVYNAKTLPDGVPSRFSGSGSGTQYSLKINSLQPEDFGSYCCQHFWSTPLTFGAGTKLELK
[1]
  EC50: 0.083 nM
[2]
  selectivity for ePHF over wild type tau: 100 fold
iPHF
  Kd: 20 nM

B2: V0033 (antibody, V domains shown)
VH: EVQLQQSGAELVRPGSSVKMSCKTSGYTFTSYGINWVKQRPGQGLEWIGYIYIGNGHTEYNEKFEGKATLTSDTSSSTAYMQLSSLTSEDSAIYFCAGTGTLFDYWGQGTTLTVSS
VL: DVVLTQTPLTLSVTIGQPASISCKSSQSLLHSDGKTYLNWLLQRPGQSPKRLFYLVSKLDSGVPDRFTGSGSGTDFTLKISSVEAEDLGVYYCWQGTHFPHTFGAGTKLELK
Wild type tau
  EC50: 0.342 nM

B3: V0020 (antibody, V domains shown)
VH: QVQLQQPGTDLVKPGASVKLSCKASGYTFTSYWMHWLKQRPGQGLEWIGNINPNNSDANYNEKFKSKATLTVDKSSSAAYMQLISLTSEDSAVYYCARANYYGGSQFAYWGQGTLVTVSA
VL: DVVVTQTPLSLPVSLGDQASISCRSSQSLVHSNGKTYLHWYLQKPGQSPNLLIYKVSNRFSGVPDRFSGSGSGTDFTLKISRVEAEDLGVYFCSQSTHVPFTFGSGTKLEIK
[1]
  EC50: 0.351 nM
iPHF
  Kd: 32.7 nM

B4: V0021 (antibody, V domains shown)
VH: QVQLQQPGIELVKTGASVKLSCKASGYTFTSNWMHWLKQRPGQGLEWIGNINPNNSETNYNEKFRKKATLTVDKSSSAAYMQLISLTSEDSAVYYCARANYYGGSQFAYWGQGTLVTVSA
VL: DVVMTQTPLSLCVSLGDQASISCRSSQSLVHSNGKTYLHWYLQKPGQSPNLLIYKVSNRFSGVPDRFSGSGSGTDFTLKISRVEAEDLGVYFCSQSTHVPFTFGSGTKLEIK
[1]
  EC50: 0.571 nM
iPHF
  Kd: 15.1 nM

B5: V0009 (antibody, V domains shown)
VH: EVQLVESGGALVQPGGSLSLSCAASGFTFTDYYMSWVRQPPGKALEWLALIRNKAKGFTTEYSASVKGRFTISRDNSQSILLFQMNDLRADDSATYYCVRDINYWGQGTTLTVSS
VL: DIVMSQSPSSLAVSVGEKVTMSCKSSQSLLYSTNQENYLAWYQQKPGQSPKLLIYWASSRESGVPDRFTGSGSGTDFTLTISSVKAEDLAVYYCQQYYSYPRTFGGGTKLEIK
[1]
  EC50: 0.038 nM
[2]
  selectivity for ePHF over wild type tau: > 100 fold
iPHF
  Kd: 0.2 nM

B6: V0035 (antibody, V domains shown)
VH: EAQLQQSGAELVRPGSSVKMSCKTSGYTFTSYGINWVKQRPGQGLEWIGYIYIRNGNTAYNEKFKGKATVTSDTSSSTVYMQLSSLTSEDSAIYFCAGTGTSFTYWGQGTLVTVSA
VL: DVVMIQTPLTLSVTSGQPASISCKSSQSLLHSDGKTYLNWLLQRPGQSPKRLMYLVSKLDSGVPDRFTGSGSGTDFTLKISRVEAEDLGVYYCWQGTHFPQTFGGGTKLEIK
[1]
  EC50: 0.315 nM
Wild type tau
  EC50: 0.169 nM

B7: V0034 (antibody, V domains shown)
VH: EVQLQQSGAELVRPGSSVKMSCKTSGYTFTSYGINWVKQRPGQGLEWVGYIYIRDGNTAYNEKFKGKATVTSDTSSSTVYMQLSSLTSEDSAIYFCAGTGTSFAYWGQGTLVTVSA
VL: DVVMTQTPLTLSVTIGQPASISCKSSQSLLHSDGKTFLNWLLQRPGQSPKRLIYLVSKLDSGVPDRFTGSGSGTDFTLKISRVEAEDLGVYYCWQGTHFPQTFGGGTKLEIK
[1]
  EC50: 0.351 nM
Wild type tau
  EC50: 0.14 nM

B8: V0058 (antibody, V domains shown)
VH: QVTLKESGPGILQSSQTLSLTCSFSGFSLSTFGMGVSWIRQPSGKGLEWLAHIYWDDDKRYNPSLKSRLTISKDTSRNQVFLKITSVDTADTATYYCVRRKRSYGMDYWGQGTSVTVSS
VL: DIVMTQSPSSLSVSAGEKVTMSCKSSQSLLSSGNQKNYLAWYQQKPGQPPKLLIYGASTRESGVPDRFTGSGSGTDFTLTISSVQAEDLAVYYCQNDHSHPYTFGGGTKLEIK
[1]
  EC50: 2.45 nM
iPHF
  Kd: 1 nM

B9: V0054 (antibody, V domains shown)
VH: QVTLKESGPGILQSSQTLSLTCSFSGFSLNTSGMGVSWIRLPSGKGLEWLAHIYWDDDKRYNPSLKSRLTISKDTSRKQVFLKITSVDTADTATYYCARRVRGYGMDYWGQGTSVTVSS
VL: DIVMTQSPSSLSVSAGEKVTMSCKSSQSLLNSGNQKNYLAWYQQKPGQPPKLLIYGTSTRESGVPDRFTGSGSGTDFTLTISSVQAEDLAVYYCQNDHSHPYTFGGGTKLEIK
iPHF
  Kd: 105 nM

B10: V0057 (antibody, V domains shown)
VH: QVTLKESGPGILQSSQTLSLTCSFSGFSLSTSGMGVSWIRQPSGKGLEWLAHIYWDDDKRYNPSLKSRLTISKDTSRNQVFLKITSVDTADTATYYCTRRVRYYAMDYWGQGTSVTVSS
VL: DIVMTQSPSSLSVSAGEKVTMSCKSSQSLLNSGNQKNYLAWYQQKPGQPPKLLIYGASTRESGVPDRFTGSGSGTDFTLTISSVQAEDLAVYYCQNDHSHPYTFGGGTKLEIK
iPHF
  Kd: 17.4 nM

B11: V00018 (antibody, V domains shown)
VH: QVQLQQPGADLVRPGSSVKLSCKASGYTFTRSWMHWVKQRPIEGLEWIGNIDPSDSEAHYNQKFKDKATLTVDKFSNTAYMQLSSLTSEDSAVYYCARWDDFYVAYWGQGTLVTVSA
VL: DIVLTQSPASLAVSLGQRATISCRASKSVSTSGYSYIHWYQQKPGQPPKLLIYLASNLESGVPARFSGSGSGTDFTLNIHPVEEEDAATYYCQHSRELPWTFGGGTKLEIK
[1]
  EC50: 0.718 nM
Wild type tau
  EC50: 0.238 nM

B12: V00019 (antibody, V domains shown)
VH: QVQLQQPGAALVRPGSSVKLSCKASGYTFTSSWMHWVKQRPIQGLEWIGNIDPSDGETHYNQKFKDKATLTVDKSSNTAYMQLSSLTSEDSAVYYCARWDDYYVAYWGQGTLVTVSA
VL: DIVLTQSPASLAVSLGQRATISCRASKSVSTSGYSYMHWYQQKPGQPPKLLIYLASNLESGVPARFSGSGSGTDFTLNIHPVEEEDAATYYCLHSRELPWTFGGGTKLEIK
Wild type tau
  EC50: 0.285 nM

B13: V00016 (antibody, V domains shown)
VH: EVQLQQSGAELVKPGASVKLSCTASGFNIKDYYIHWVKQRTEQGLEWIGRIDPEDGETKYAPKFQGKATIAADTSSNTAYLHLNSLTSEDTAVYYCAREFSYAMDYWGQGTSVTVSS
VL: NIMMTQSPSSLAVSAGEKVTMSCKSSQSVLYSSNQKNYLAWYQQKPGQSPKLLIYWASTRESGVPDRFTGSGSGTDFTLTISSVQAEDLAVYYCHQYLSSRTFGGGTKLEIK
Wild type tau
  EC50: 0.141 nM

B14: V0050 (antibody, V domains shown)
VH: EVQLQQSGPELVKPGASVKIPCRASGYTFTDYNMDWVKQSHGKTLEWIGDINPNNGGTIYNQKFKGKATLTVDKSSSTAYMELRSLTSEDTAVYYCARGRGMGYYALDYWGQGTSVTVSS
VL: DIQMTQSPASLSASVGETVTFTCGASENVYGALNWYQRKQGKSPQLLIYGATNLADGMSSRFSGSGSGRQYSLKISSLHPDDVATYYCQNVLTIPWTFGGGAKLEIK
[1]
  EC50: 17.9 nM
iPHF
  Kd: 0.4 nM

B15: V0026 (antibody, V domains shown)
VH: QVQLQQSGPELVKPGASVKISCKASGYSFTDYYINWVKQRPGQGLEWIGWIFPGSDSTYYNEKFKGKATLTVDKSSSTASMLLSSLTSEDSAVYFCARPTVVARDYAMDYWGQGTSVTVSS
VL: DVLMTQTPLSLPVSLGDQASISCRSSQSIVYSNGNTYLEWYLQKPGQSPKLLIYKVSNRFSGVPDRFSGSGSGTDFTLKISRVEAEDLGVYYCFQGSHVPYTFGGGTKLEIK
[1]
  EC50: 5.61 nM
iPHF
  Kd: 0.7 nM

B16: V0032 (antibody, V domains shown)
VH: QVQLKQSGAELVRPGASVKLSCKTSGYTFTDYYIKWVKQRPGQGLEWIARIYPGSGNTYYNEKFKGKATLTAEKSSSTAYMQLSSLTSEDSAVYFCARPAYYSKDYAMEYWGQGTSVTVSS
VL: DVLMTQTPLSLPVSLGDQASISCRSSQSIVYTNGNTYLEWYLQKPGQSPKLLIYKVSNRFSGVPDRFSGSGSGTDFTLKISRVEAEDLGVYYCFQGSHVPYTFGGGTKLEIK
[1]
  EC50: 14.3 nM
iPHF
  Kd: 17.5 nM

B17: V0024 (antibody, V domains shown)
VH: QVQLQQPGTELVKPGASVKLSCKASGYTFTRFWMHWVKQRPGQGLEWIGNINPNNGGTDNNERFKSKATLTVDRSSSTAYMQLSSLTSEDSAVYYCARGTGTGAMDYWGQGTSVTVSS
VL: DVVMTQTPLSLPVSLGDQASISCRSSQSLVHSNGNTHLYWYLQKPGQSPKLLIYRVSSRFSGVPDRFSGSGSGTDFTLKISRVEAEDLGVYFCFQGTHVPRTFGGGTKLEIK
[3]
  Kd: 0.225 nM

B18: V0027 (antibody, V domains shown)
VH: QVQLQQSGPELVKPGASVKISCKASGYTFTEYYLNWMKQRPGQGLEWIGWIFPGRGSTNYNEKFKGKATLTVDKSSSTAYMLLSSLTSEDSAVYFCARPTIVARDYAMDYWGQGTSVTVSS
VL: DVLMTQTPLSLPVSLGDQASISCRSSQSIVHRNGNTYLEWYLQKPGQSPKLLIYKVSNRFSGVPDRFSGSGSGTDFTLKISRVEAEDLGVYYCFQGSHVPFTFGSGTKLEIK
[1]
  EC50: 3.51 nM
iPHF
  Kd: 10.5 nM

B19: V0031 (antibody, V domains shown)
VH: QVQLQQPGTELVKPGASVKLSCKASGYTFTSYWMHWVKQRPGQGLEWIGNIYPSNGGTYYNEKFKSKATLTVDKSSSTAYMQLSSLTSEDSAVYYCARSSVVGRDYAMDYWGQGTSVTVSS
VL: DVLMTQTPLSLPVSLGDQASIACRSSQSIVHSNGNTYLEWYLQKPGQSPELLIYKVSNRFSGVPDRFSGSGSGTDFTLKISRVEAEDLGVYYCFQGSHVPYTFGGGTKLEIK
[1]
  EC50: 8.8 nM
iPHF
  Kd: 57.7 nM
